# Entries after “also recorded” stand apart in the source; their conditions may differ.
# T1: EpCAM (Homo sapiens, UniProt P16422)
# T1 sequence (P16422 24-314): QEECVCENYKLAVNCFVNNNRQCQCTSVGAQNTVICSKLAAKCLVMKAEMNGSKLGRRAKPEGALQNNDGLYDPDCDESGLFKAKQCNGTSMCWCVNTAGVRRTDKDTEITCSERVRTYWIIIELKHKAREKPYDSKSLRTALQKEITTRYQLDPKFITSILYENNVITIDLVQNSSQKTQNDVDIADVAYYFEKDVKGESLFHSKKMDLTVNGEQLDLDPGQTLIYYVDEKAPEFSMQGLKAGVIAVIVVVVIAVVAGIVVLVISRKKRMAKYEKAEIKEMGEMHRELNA
# B1: EpCAMΔEGFI-V5 (other)
# chain: QEESKLAAKCLVMKAEMNGSKLGRRAKPEGALQNNDGLYDPDCDESGLFKAKQCNGTSMCWCVNTAGVRRTDKDTEITCSERVRTYWIIIELKHKAREKPYDSKSLRTALQKEITTRYQLDPKFITSILYENNVITIDLVQNSSQKTQNDVDIADVAYYFEKDVKGESLFHSKKMDLTVNGEQLDLDPGQTLIYYVDEKAPEFSMQGLKAGVIAVIVVVVIAVVAGIVVLVISRKKRMAKYEKAEIKEMGEMHRELNA
# notes: also called EGF like-domain deletion mutant EpCAM-V5; not shown: V5 tag
# B2: EpCAMΔEGFII-V5 (other)
# chain: QEECVCENYKLAVNCFVNNNRQCQCTSVGAQNTVICSKLAAKSERVRTYWIIIELKHKAREKPYDSKSLRTALQKEITTRYQLDPKFITSILYENNVITIDLVQNSSQKTQNDVDIADVAYYFEKDVKGESLFHSKKMDLTVNGEQLDLDPGQTLIYYVDEKAPEFSMQGLKAGVIAVIVVVVIAVVAGIVVLVISRKKRMAKYEKAEIKEMGEMHRELNA
# notes: as for B1
# B3: EpEXΔEGFI-His (ligand)
# chain: QEESKLAAKCLVMKAEMNGSKLGRRAKPEGALQNNDGLYDPDCDESGLFKAKQCNGTSMCWCVNTAGVRRTDKDTEITCSERVRTYWIIIELKHKAREKPYDSKSLRTALQKEITTRYQLDPKFITSILYENNVITIDLVQNSSQKTQNDVDIADVAYYFEKDVKGESLFHSKKMDLTVNGEQLDLDPGQTLIYYVDEKAPEFSMQGLK
# notes: EpEX lacking aa 27-59; also called EGF like-domain deletion mutant EpEX-His; soluble EpEX mutant protein; not shown: His tag
# B4: EpEXΔEGFII-His (ligand)
# chain: QEECVCENYKLAVNCFVNNNRQCQCTSVGAQNTVICSKLAAKSERVRTYWIIIELKHKAREKPYDSKSLRTALQKEITTRYQLDPKFITSILYENNVITIDLVQNSSQKTQNDVDIADVAYYFEKDVKGESLFHSKKMDLTVNGEQLDLDPGQTLIYYVDEKAPEFSMQGLK
# notes: EpEX lacking aa 66-135; also called EGF like-domain deletion mutant EpEX-His; soluble EpEX mutant protein; not shown: His tag
# B5: hEpAb2-6: humanized EpAb2-6 (antibody, V domains shown)
# VH: VKLQESGPELKKPGETVKISCKASGYTFTDYSMHWVKQAPGKGLKWMGWINTETGEPTYADDFKGRFAFSLETSASTAYLQINNLKNEDTATYFCARTAVYWGQGTTVTVSS
# VL: DIQMTQSPSSLSASLGERVSLTCRASQEISVSLSWLQQEPDGTIKRLIYATSTLDSGVPKRFSGSRSGSDYSLTISSLESEDFVDYYCLQYASYPWTFGGGTKLEIKRADAAPTVS
# B6: edrecolomab: other antibody targeting only the EGF I domain of EpCAM (antibody, chains of the INN, looked up, V domains shown)
# VH: QVQLQQSGAELVRPGTSVKVSCKASGYAFTNYLIEWVKQRPGQGLEWIGVINPGSGGTNYNEKFKGKATLTADKSSSTAYMQLSSLTSDDSAVYFCARDGPWFAYWGQGTLVTVSA
# VL: NIVMTQSPKSMSMSVGERVTLTCKASENVVTYVSWYQQKPEQSPKLLIYGASNRYTGVPDRFTGSGSATDFTLTISSVQAEDLADYHCGQGYSYPYTFGGGTKLEIK
# How the values were obtained:
# [1] = target: T2, HGFRECD-c-Myc (extracellular domain of HGFR with c-Myc tag, expressed in HEK293T cells) (UniProt P08581 25-932); experiment: co-IP from transfected HEK293T cells (FIG. 1F)
# T2 construct: extracellular domain; also called HGFRECD-c-Myc-tag; not shown: c-Myc tag
# T2 sequence (P08581 25-932): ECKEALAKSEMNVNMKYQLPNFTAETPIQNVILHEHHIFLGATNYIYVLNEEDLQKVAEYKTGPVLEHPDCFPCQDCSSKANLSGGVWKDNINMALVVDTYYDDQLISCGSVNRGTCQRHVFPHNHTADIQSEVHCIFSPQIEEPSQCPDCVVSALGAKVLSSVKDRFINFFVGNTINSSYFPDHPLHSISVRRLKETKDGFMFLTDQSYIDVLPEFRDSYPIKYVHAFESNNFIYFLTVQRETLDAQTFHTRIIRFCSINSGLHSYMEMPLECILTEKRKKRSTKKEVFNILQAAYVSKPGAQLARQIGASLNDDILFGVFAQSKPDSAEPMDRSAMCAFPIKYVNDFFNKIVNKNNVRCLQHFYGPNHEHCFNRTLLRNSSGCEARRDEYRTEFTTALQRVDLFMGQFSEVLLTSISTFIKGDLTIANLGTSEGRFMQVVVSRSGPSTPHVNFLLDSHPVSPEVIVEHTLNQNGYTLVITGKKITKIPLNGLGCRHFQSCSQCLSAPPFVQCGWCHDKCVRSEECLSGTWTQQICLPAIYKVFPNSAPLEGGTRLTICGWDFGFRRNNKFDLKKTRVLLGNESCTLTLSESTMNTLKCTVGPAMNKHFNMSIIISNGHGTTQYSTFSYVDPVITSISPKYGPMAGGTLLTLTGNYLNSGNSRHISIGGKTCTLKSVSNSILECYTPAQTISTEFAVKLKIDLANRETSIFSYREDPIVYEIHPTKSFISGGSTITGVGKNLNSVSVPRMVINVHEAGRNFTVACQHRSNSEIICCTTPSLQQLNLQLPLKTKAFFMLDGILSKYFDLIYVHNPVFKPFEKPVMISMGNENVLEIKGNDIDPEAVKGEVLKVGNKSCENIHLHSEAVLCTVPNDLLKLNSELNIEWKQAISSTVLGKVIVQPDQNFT
# [2] = target: T2, HGFRECD-c-Myc (extracellular domain of …); experiment: co-IP with anti-c-Myc from transfected HEK293T cells (FIG. 1G)
# HGFR signaling = experiment: Western blotting of phosphorylated HGFR, AKT, ERK, FAK in HCT116 cells; format: cell-based, human; details: HCT116; 10 μg/ml 16 h, then EpEX-His 50 nM 15 min; FIG. 7D
# Protocol: FIGS. 2A to 2K. EpEX promotes tumor progression via HGFR signaling. (FIG. 2A) WT or EpCAM knockout (KO) HCT116 and HT29 cells treated with HGF (0.5 nM) for 15 min. The phosphorylation of HGFR, AKT, and ERK was examined by Western blotting. (FIG. 2B) WT or KO HCT116 and HT29 cells were treated with HGF (0.5 nM) with 2% FBS for the indicated times. Cell growth was examined by the WST-1 assay. (FIG. 2C) Starved HCT116 cells were treated with HGFR inhibitor SU11274 (SU, 10 μM) for 1 h then treated with 50 nM of EpEX-His for 15 min. The levels of phosphorylated HGFR, EGFR, AKT, and ERK were examined by Western blotting. HCT116 and HT29 cells were treated with 50 nM EpEX and SU (10 μM). (FIG. 2D) Cell growth was examined by WST-1 assay after treatment for indicated time. (FIG. 2E) HCT116 cells were treated with shLuc or HGFR shRNA then treated with 50 nM of EpEX-His for 15 min. The levels of phosphorylated HGFR, EGFR, ERK, and AKT were examined in HGFR knockdown HCT116 cells by Western blotting. (FIG. 2F) The levels of phosphorylated ADAM17 and presenilin 2 were examined by Western blotting. (FIG. 2G) Active β-catenin nuclear translocation was assay by using Western blotting. (H) HCT116 cells were treated with shLuc or HGFR shRNA then treated with 50 nM of EpEX-His for indicated times. Cell growth was examined by the WST-1 assay. (FIG. 2I) HCT116 cells after shLuc and shHGFR treatment were treated with 50 nM of EpEX-His with 2% FBS for 7 days. Colony formation was examined by crystal violet staining.
# FIGS. 6A to 6J. EpAb2-6 inhibits EpCAM and HGFR signaling and promotes active β-catenin and Snail protein degradation via activating GSK3β. (FIG. 6A) HCT116 cells were treated with 10 μg/ml control IgG (normal mouse IgG, NMIgG) or mouse EpAb2-6 (EpAb2-6) for 16 h, followed by treatment with EpEX-His (50 nM) for 15 min. Levels of phosphorylated HGFR, AKT, FAK, GSK3β, ERK, ADAM17, and presenilin 2 were examined by Western blotting. (FIG. 6B) HCT116 cells were treated with 10 μg/ml control IgG or mouse EpAb2-6 for 16 h, followed by treatment without or with HGF (0.5 nM) for 15 min. Levels of phosphorylated HGFR, AKT, and ERK were examined by Western blotting. HCT116 cells were treated with mouse EpAb2-6 (10 μg/ml) and HGF (0.5 nM). (FIG. 6C) Cell migration was examined by the wound healing assay at the indicated times. (FIG. 6D) Cell invasion was assessed by a Transwell assay with matrigel after 24 h. (FIG. 6E) HCT116 cells were treated with NMIgG or EpAb2-6 for 6 h and then immunoprecipitated with anti-EpCAM (IP: EpCAM) or anti-HGFR (IP: HGFR) antibodies, followed by Western blotting. (FIG. 6F) EpEX-His (2 μg/ml) co-treated with 1 μg IgG or EpAb2-6 was added to HGFR-Fc-coated (1 μg/ml) ELISA plates and detected by TMB colorimetric peroxidase assay. (FIG. 6G) EMT associated protein levels were detected by Western blotting in HCT116 cells treated with NMIgG or EpAb2-6 for 24 h. (FIG. 6H) Protein expression was analyzed by Western blotting in HCT116 cells after treatment with EpAb2-6 and 2 μM GSK3β inhibitor (BIO) for 24 h. Quantification of the normalized protein expression in the bottom panel. (FIG. 6I) HCT116 cells were treated with 10 μM MG132 and EpAb2-6 for 6 h before cell collection and subsequent Western blotting. (FIG. 6J) Stability of Snail protein in HCT116 cells treated with NMIgG or EpAb2-6. Cells were treated with cyclohexamide (CHX) 100 μg/ml at the indicated intervals and subjected to Western blotting.
# FIGS. 7A to 7G. EpAb2-6 binds EpEX and induces apoptosis by F(ab′)2 and inhibits regulated intramembrane proteolysis (RIP) activation and HGFR signaling. (FIG. 7A) Binding affinity of IgG EpAb2-6 (mouse) and F(ab′)2 to EpEX-His (1 μg/ml) coated overnight was checked using ELISA (OD450). (FIG. 7B) HCT116 cells were treated with 100 μg/ml control IgG, Fc, or F(ab′)2 of EpAb2-6 for 24 h. The apoptotic and necrotic cells were quantified by fluorescein annexin V-FITC/PI double labeling. […]
# HT29 cells = experiment: Apoptosis assay, annexin V-FITC/PI double labeling, HT29; format: cell-based, human; details: 10 μg/ml 24 h, FIG. 7C
# Protocol: (§1) FIGS. 7A to 7G. EpAb2-6 binds EpEX and induces apoptosis by F(ab′)2 and inhibits regulated intramembrane proteolysis (RIP) activation and HGFR signaling. (FIG. 7A) Binding affinity of IgG EpAb2-6 (mouse) and F(ab′)2 to EpEX-His (1 μg/ml) coated overnight was checked using ELISA (OD450). (FIG. 7B) HCT116 cells were treated with 100 μg/ml control IgG, Fc, or F(ab′)2 of EpAb2-6 for 24 h. The apoptotic and necrotic cells were quantified by fluorescein annexin V-FITC/PI double labeling. (FIG. 7C) HCT116 and HT29 cells were treated with 10 μg/ml control IgG, MT201, humanized EpAb2-6 (hEpAb2-6) or mouse hybridoma EbAb2-6 (mEpAb2-6) for 24 h. The apoptotic and necrotic cells were quantified by fluorescein annexin V-FITC/PI double labeling. (FIG. 7D) HCT116 cells were treated with 10 μg/ml control IgG, MT201, hEpAb2-6 or mEpAb2-6 for 16 h, followed by treatment with EpEX-His (50 nM) for 15 min. Levels of phosphorylated HGFR, AKT, and ERK, and (FIG. 7E) RIP proteins ADAM17 and presenilin 2 were examined by Western blotting. Anti-EpCAM antibody and crizotinib coordinately induces apoptosis in colon cancer cells. (FIG. 7F) HCT116 and HT29 cells were treated with 10 μg/ml NMIgG or EpAb2-6 and 4 μM HGFR inhibitor crizotinib for 24 h. The apoptotic and necrotic cells were quantified by fluorescein annexin V-FITC/PI double labeling. (FIG. 7G) HCT116 and HT29 cells were treated with 10 μg/ml NMIgG or EpAb2-6 and 10 μM HGFR inhibitor crizotinib. Cell invasion was assessed by a Transwell assay with matrigel after 24 h.
# (§2) Cells were seeded and treated with 10 μg/ml mAb or inhibitor for 6 h; an unrelated mouse myeloma immunoglobulin used at appropriate dilution served as the IgG2a (Invitrogen #02-6200) isotype control. Apoptotic cells were detected using Annexin V-FITC and PI, and were analyzed using a flow cytometer (BD Immmunocytometry Systems). Early apoptosis was measured with the Annexin V-FITC Apoptosis Detection kit II (BD Pharmingen). Late apoptotic nuclei were detected with propidium iodide (PI) staining.
# ADAM17 and presenilin 2 = experiment: Western blotting of RIP proteins ADAM17 and presenilin 2 in HCT116 cells; format: cell-based, human; details: 10 μg/ml 16 h, then EpEX-His 50 nM 15 min, FIG. 7E
# Protocol: as §1, with “(FIG. 7G) HCT116 and HT29 cells were treated with 10 μg/ml NMIgG or EpAb2-6 and 10 μM HGFR inhibitor crizotinib.” left out
# Whole cell extracts were prepared with RIPA buffer (50 mM Tris-HCl pH7.4, 1% NP-40, 0.5% Sodium deoxycholate, 0.1% SDS, 150 mM NaCl, 2 mM EDTA, 50 mM NaF). Protein concentrations of the cell lysates were determined by the Bradford assay. […]
# Appropriate horseradish peroxidase-associated secondary antibodies (Millipore) were applied and the membranes were incubated at room temperature (RT) for 1 h. The protein bands were subsequently visualized with chemiluminescence reagents (Millipore) and detected on a BioSpectrum 600 Imaging system (UVP). The protein level was quantified from band intensity using Gel-Pro analyzer 3.1 (Media Cybernetics).
# HCT116 cells = experiment: Apoptosis assay, annexin V-FITC/PI double labeling, HCT116; format: cell-based, human; details: 10 μg/ml 24 h, FIG. 7C
# Protocol: as §1, §2
# cancer cells = details: comparison in the description; previous work; cited from earlier work
# EpCAM = target: T1, EpCAM; details: other anti-EpCAM antibodies, comparison in the description; cited from earlier work
molecule,measurement,setting,value
B1,binding result,[1],binds
B2,binding result,[1],binds
B3,binding result,[2],binds
B4,binding result,[2],binds
B5,"phosphorylation of HGFR, AKT, and ERK",HGFR signaling,"inhibited phosphorylation of HGFR, AKT, and ERK"
same,apoptosis,HT29 cells,inducing apoptosis
same,levels of phosphorylated ADAM17 and presenilin 2,ADAM17 and presenilin 2,decreased
same,apoptosis,HCT116 cells,inducing apoptosis
B6,inducing apoptosis of cancer cells,cancer cells,failing to
same,EpCAM domains bound,EpCAM,target only the well-described EGF I domain of EpCAM; also recorded: binding to domain I only
